Assay results as given in patent US20090117124A1 (Pfizer, published 2009).
Residue numbers refer to the chain shown, from its start. Names and notes keep the numbering of the source.

T1: human IgA (Sigma, Cat. No. I2636) (human)
T1 chain: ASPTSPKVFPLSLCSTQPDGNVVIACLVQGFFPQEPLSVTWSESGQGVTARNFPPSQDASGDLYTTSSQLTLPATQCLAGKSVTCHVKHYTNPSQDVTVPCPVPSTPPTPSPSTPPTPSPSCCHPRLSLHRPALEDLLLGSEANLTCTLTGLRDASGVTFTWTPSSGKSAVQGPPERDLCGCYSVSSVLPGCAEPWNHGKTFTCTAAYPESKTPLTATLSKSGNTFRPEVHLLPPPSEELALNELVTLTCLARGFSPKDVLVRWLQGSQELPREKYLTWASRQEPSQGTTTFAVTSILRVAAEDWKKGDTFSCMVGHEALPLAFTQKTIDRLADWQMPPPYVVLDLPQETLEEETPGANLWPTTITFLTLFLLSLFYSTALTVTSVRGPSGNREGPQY

B1: 5.948.1 (recombinant) (antibody, human IgG2, kappa, V domains shown)
VH: QVQLVQSGAEVKKPGASVKVSCKASGYTFTSYDINWVRQATGQGLEWMGWMDPNSGNTGYAQKFQGRVTMTRNTSISTAYMELSSLRSEDTAVYYCARGHYDSDGYYSFSGMDVWGQGTTVTVSS
VL: not shown
notes: Human IgG2 kappa; leader omitted; Two batches were tested in some assays; also called recombinant 5.948.1; 5.948.1 - Batch 1 (762.8 µg/mL)
B2: 5.948.1 Hc-H100Y (antibody, human IgG2, kappa, V domains shown)
VH: B1 VH with H100Y
VL: not shown
notes: Human IgG2 kappa; leader omitted; also called 5.948.1 (H100Y); 5.948.1 H100Y

Experiments:
[1] = target: T2, human IgG3 (Biodesign, Cat. No. A50186H) (human); assay: ELISA on coated immunoglobulin
T2 construct: Bought immunoglobulin coated on the plate
Method: (§1) Wells were washed 3× with 150 μL wash buffer (0.05% Tween-20 (Sigma, Cat. No. P7949)/PBS) then blocked with 150 μL/well blocking buffer (2.5% BSA (Sigma, Cat. No. A7030)/PBS) for 2 hours at room temperature. Wells were washed 3× with 150 μL wash buffer/well. […] Antibodies were diluted in diluent buffer (PBS/1% BSA/0.05% Tween-20) and this was added to blank control wells (duplicate wells for each secondary antibody used). Antibodies were incubated for 2 hours at room temperature. Wells were washed 3× with 150 μL wash buffer/well. Binding of control antibodies to immunoglobulin was detected with anti-mouse IgG-HRP conjugate (Sigma, Cat. No. A4416) diluted 1:8000 in diluent buffer. 50 μL/well was added to control antibody and blank wells. Wells were incubated for 1 hour at room temperature, then washed 3× with 150 μL wash buffer/well. 50 μl OPD (Dako, Cat. No. […] Wells were incubated for 1 hour at room temperature then washed 3× with 150 μL wash buffer/well. Streptavidin-HRP (Amersham Bioscience, Cat. No. RPN 1231) diluted 1:2000 in diluent buffer was added to all wells and incubated for 45 minutes at room temperature. Wells were washed (3×150 μL wash buffer).

[2] = target: T1, human IgA (Sigma, Cat. No. I2636); assay: ELISA on coated immunoglobulin
Method: as §1

[3] = target: T3, human IgG1 (Biodesign, Cat. No. A50183H) (human); assay: ELISA on coated immunoglobulin
T3 construct: Bought immunoglobulin coated on the plate
Method: as §1

[4] = target: T4, human IgE (Human myeloma, azide free, Serotec, Cat. No. PHP008X2) (human, UniProt P01854 1-546); assay: ELISA on coated immunoglobulin
T4 construct: mature; Bought full length human myeloma IgE; in the BIAcore kinetics Serotec PHP008X2 or Europa Bioproducts CP1035K was used; also called full length human IgE; human immunoglobulin E
Method: as §1

[5] = target: T5, cynomolgus monkey IgE (in cynomolgus serum, Harlan Sera-Lab Ltd) (cynomolgus monkey); assay: capture ELISA, Test 1, Cyno 4
T5 construct: Serum was the source of IgE; eight serum samples; also called cynomolgus IgE; Cyno 1 to Cyno 8 serum samples
Method: (§2) Wells were washed once with 150 μL/well wash buffer (0.05% Tween-20, Sigma, Cat. No. P7949/TBS) then blocked with 150 μL/well 1% BSA (Sigma, Cat. No. A7030) in TBS for 2 hours at room temperature. Wells were washed twice with 150 μL wash buffer. 50 μL human (in-house donors) or cynomolgus serum (Harlan Sera-Lab Ltd, Loughborough) was added from neat to at least 1:16 dilution in 1% BSA/0.05% Tween-20/TBS diluent buffer. […] Wells were incubated for 2 hours at 25° C. before washing (3×150 μL wash buffer). […] Wells were incubated for 1 hour at 25° C. then washed (3×150 μL wash buffer). Streptavidin-HRP (Amersham Bioscience, Cat. No. RPN 1231) diluted 1:1000 in diluent buffer was added to all wells and incubated for 45 minutes at room temperature. Wells were washed (3×150 […] wash buffer). 50 μL OPD (Dako, Cat. No. S2045) was added to all wells and the color allowed to develop for 10 minutes before stopping the reaction with 50 μl 0.6M H₂SO₄ and the absorbance measured at 490 nm.

[6] = target: T6, free IgE in human serum (healthy volunteers, in-house donors) (human, UniProt P01854-1 1-428); assay: serum free IgE depletion ELISA; DIN 0011 experiment 2
T6 construct: Kept apart from the bought myeloma IgE because it is native serum IgE of single donors; also called serum IgE
Method: (§3) The next day ELISA plates were washed 1× with 300 μL/well wash buffer (0.05% Tween-20, Sigma, Cat. No. P7949/TBS) then blocked with 150 μL/well 1% BSA (Sigma, Cat. No. A7030) in TBS for 1 hour at room temperature.

[7] = target: T6, free IgE in human serum (healthy …); assay: serum free IgE depletion ELISA; DIN 0461
Method: as §3

[8] = target: T6, free IgE in human serum (healthy …); assay: serum free IgE depletion ELISA; DIN 0748
Method: as §3

[9] = target: T6, free IgE in human serum (healthy …); assay: serum free IgE depletion ELISA; DIN 0382
Method: as §3

[10] = target: T5, cynomolgus monkey IgE (in cynomolgus …); assay: capture ELISA, Test 2, Cyno 3
Method: as §2

[11] = target: T6, free IgE in human serum (healthy …); assay: serum free IgE depletion ELISA; DIN 0451 experiment 2
Method: as §3

[12] = target: T5, cynomolgus monkey IgE (in cynomolgus …); assay: capture ELISA, Test 1, Cyno 6
Method: as §2

[13] = target: T5, cynomolgus monkey IgE (in cynomolgus …); assay: capture ELISA, Test 1, Cyno 7
Method: as §2

[14] = target: T5, cynomolgus monkey IgE (in cynomolgus …); assay: capture ELISA, Test 2, Cyno 8
Method: as §2

[15] = target: T5, cynomolgus monkey IgE (in cynomolgus …); assay: capture ELISA, Test 1, Cyno 1
Method: as §2

T6 sequence (P01854 other isoform, or with tags, fused parts or gaps): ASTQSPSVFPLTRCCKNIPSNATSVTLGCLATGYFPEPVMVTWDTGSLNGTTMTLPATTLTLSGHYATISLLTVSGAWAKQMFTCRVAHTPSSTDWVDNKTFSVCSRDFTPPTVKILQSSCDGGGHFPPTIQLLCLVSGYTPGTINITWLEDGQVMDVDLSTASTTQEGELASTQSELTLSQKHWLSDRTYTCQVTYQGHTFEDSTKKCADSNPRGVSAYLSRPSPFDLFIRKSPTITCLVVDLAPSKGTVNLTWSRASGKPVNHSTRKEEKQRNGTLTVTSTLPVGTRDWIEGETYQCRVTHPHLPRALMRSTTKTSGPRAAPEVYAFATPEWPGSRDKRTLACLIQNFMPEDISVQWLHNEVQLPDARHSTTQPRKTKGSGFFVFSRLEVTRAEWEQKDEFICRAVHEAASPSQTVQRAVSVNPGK
T4 sequence (P01854 whole entry): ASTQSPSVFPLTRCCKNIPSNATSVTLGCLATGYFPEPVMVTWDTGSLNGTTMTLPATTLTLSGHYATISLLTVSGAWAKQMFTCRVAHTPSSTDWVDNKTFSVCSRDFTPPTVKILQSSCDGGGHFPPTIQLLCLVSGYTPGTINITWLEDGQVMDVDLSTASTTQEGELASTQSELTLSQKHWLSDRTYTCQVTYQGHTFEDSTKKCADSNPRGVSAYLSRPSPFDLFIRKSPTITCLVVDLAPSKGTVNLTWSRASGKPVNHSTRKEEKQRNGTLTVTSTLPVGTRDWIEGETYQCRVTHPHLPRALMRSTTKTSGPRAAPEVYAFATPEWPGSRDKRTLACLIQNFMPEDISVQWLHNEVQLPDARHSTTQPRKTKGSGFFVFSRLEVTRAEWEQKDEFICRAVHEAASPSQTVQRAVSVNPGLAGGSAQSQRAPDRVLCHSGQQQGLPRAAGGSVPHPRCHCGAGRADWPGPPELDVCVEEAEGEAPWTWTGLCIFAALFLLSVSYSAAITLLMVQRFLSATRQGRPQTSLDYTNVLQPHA

Binder | A290 nm [1] | A290 nm [2] | A290 nm [3] | A290 nm [4] | IgE concentration detected [5] | IC25 ng/mL [6] | IC25 ng/mL [7] | IC25 ng/mL [8] | IC25 ng/mL [9] | IgE concentration detected [10] | IC25 ng/mL [11] | IgE concentration detected [12] | IgE concentration detected [13] | IgE concentration detected [14] | IgE concentration detected [15]
B1 | 0.04 A290 nm | 0.04 A290 nm | 0.07 A290 nm | 2.57 A290 nm | 39 ng/mL | 6.34 µg/mL | 1.47 µg/mL | 25.1 µg/mL | 25 µg/mL | 309 ng/mL | 39.7 µg/mL | 53 ng/mL | 8 ng/mL | 56 ng/mL | 481 ng/mL
B2 | 0.06 A290 nm | 0.05 A290 nm | 0.06 A290 nm | 1.05 A290 nm |  | 2.96 µg/mL | 0.34 µg/mL |  |  | 178 ng/mL | 10.5 µg/mL |  |  | 36 ng/mL | 
